Source: publication PMC6138665 (2018)
Non-standard residues stand in square brackets, D forms with d. No end group written: not given here. pS = N[C@@H](COP(=O)(O)O)C(=O)O

Key:
[1] = molecular target: T1, GABARAP protein (recombinant) (UniProt O95166 1-117); assay: ITC
[2] = molecular target: T2, LC3B protein (recombinant) (UniProt Q9GZQ8 1-120); assay: ITC
[3] = molecular target: T2, LC3B protein (recombinant); assay: NMR
[4] = molecular target: T1, GABARAP protein (recombinant); assay: NMR; GABARAP residue I32
[5] = molecular target: -L1 protein (recombinant) (UniProt Q9H0R8 1-117); assay: ITC
-L1 protein (recombinant), sequence (Q9H0R8 whole entry): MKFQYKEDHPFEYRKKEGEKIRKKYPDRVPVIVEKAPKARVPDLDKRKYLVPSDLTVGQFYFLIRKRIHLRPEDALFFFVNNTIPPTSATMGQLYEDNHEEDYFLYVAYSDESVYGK

[6] = molecular target: LC3A protein (recombinant) (UniProt Q9H492 1-121); assay: ITC

T1 sequence (O95166 whole entry): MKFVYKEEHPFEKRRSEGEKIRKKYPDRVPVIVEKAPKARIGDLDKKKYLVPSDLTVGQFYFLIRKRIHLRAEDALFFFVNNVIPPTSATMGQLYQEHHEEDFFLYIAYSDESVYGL

Binder	Kd [1] [µM]	Kd [2] [µM]	Kd [3] [µM]	Kd [4] [µM]	Kd [5] [µM]	Kd [6] [µM]
EALNDGVEYYWDQLNET [AMBRA1-LIR peptide, D-phosphomimicked (PM)]	31	~50				
EALNSGVEYYWDQLNET [AMBRA1-LIR peptide, unphosphorylated (P0)]			193	61	> 50	
EALN[pS]GVEYYWDQLNET [AMBRA1-LIR peptide, S1014 phosphorylated (P1)]			46	7	25	~50
